Data set [1] concerns the target T1, Dis3L2 wild type (mouse, UniProt Q8CI75 1-870).
T1 sequence: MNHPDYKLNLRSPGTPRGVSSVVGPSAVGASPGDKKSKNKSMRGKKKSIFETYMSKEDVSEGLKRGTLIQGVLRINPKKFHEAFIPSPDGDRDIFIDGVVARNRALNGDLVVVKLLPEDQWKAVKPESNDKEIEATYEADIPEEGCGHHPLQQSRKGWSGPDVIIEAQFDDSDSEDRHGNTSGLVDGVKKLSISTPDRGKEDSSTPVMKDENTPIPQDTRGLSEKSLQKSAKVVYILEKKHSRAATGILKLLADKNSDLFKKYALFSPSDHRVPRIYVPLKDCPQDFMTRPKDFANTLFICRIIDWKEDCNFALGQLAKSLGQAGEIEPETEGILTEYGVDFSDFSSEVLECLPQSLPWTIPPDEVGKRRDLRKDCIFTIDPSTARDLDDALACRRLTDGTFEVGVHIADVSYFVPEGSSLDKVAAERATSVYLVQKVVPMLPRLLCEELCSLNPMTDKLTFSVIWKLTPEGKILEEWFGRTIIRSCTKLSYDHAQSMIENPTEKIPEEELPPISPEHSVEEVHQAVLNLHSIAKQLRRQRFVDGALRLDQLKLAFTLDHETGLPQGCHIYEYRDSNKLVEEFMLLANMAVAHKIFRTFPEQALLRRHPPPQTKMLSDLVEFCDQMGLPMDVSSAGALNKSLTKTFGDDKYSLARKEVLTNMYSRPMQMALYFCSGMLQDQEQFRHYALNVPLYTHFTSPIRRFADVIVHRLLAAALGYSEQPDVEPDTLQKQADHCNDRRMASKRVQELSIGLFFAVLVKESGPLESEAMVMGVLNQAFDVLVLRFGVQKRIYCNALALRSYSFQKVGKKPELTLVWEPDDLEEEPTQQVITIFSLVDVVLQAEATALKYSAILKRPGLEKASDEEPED
As to the kind of experiment: filter binding.

The target in data set [2] is T1, Dis3L2 wild type. Kind of data set: filter binding. This is another data set of the same source.
In data set [3] the target is T2, Dis3L2 truncated D389N (crystal construct) (mouse, UniProt Q8CI75 37-857, D389N;del148-169;del194-221).
T2 sequence: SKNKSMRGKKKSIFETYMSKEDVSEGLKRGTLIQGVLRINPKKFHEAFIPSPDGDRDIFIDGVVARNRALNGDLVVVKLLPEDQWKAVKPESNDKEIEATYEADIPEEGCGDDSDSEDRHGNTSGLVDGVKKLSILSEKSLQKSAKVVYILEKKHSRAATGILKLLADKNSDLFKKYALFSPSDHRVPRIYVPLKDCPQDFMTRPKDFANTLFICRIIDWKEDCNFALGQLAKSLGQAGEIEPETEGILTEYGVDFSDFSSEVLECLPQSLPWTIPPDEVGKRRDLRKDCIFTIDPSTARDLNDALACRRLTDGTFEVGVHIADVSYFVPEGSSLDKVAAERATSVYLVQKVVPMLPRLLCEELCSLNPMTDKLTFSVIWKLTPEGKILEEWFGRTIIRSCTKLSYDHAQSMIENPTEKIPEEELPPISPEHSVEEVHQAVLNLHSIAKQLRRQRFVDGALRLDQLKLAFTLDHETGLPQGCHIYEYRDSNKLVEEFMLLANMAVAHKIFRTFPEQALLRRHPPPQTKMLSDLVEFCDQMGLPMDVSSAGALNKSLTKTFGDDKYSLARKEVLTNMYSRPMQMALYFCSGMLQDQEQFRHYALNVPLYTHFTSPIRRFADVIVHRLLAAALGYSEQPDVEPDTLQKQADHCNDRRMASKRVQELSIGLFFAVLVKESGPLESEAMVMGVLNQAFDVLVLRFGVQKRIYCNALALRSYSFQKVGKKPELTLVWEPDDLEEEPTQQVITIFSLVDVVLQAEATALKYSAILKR
As to the kind of experiment: X-ray crystallography.

In data set [4] the target is T1, Dis3L2 wild type. As to the kind of experiment: filter binding. The source holds these as a separate data set.
Data set [5] has as its target T1, Dis3L2 wild type. As to the kind of experiment: filter binding. This is another data set of the same source.

Like-named read-outs stand apart in the source and are kept apart here.

The source of these data is PMC4192074.

B1: A15 (ssRNA)
RNA: AAAAAAAAAAAAAAA
In turn, B1 displayed a binding signal with Dis3L2 wild type [1] greater than 200 fold weaker than U15.

B2: C15 (ssRNA)
RNA: CCCCCCCCCCCCCCC
Turning to B2, the binding signal with Dis3L2 wild type [1] was greater than 200 fold weaker than U15.

B3: deoxyU15 (ssDNA)
DNA: UUUUUUUUUUUUUUU
modifications: 2'-deoxyuridine at all positions
In the case of B3, in the data set with Dis3L2 wild type [2], the binding result is listed as “binds”.

B4: U13 (ssRNA)
RNA: UUUUUUUUUUUUU
Regarding B4, the binding result in data set [3] is reported as “binds”.

B5: pre-let-7 (pre-let7a1) (structured_RNA)
RNA: UGAGGUAGUAGGUUGUAUAGUUUUAGGGUCACACCCACCACUGGGAGAUAACUAUACAAUCUACUGUCUUUC
For B5, the binding signal with Dis3L2 wild type [4] was 10 fold weaker than pre-let-7-U15.

B6: U15 (ssRNA)
RNA: UUUUUUUUUUUUUUU
Consider B6, for which, in the data set with Dis3L2 wild type [5], the binding result was “binds”.
